Laboratory results reported in paper PMC6238609, “Secretory granule protein chromogranin B (CHGB) forms an anion channel in membranes” (Life Science Alliance, 2018).

Tests used:
[1] = target: the molecule itself; experiment: SEC; purified CHGB in detergent (0.050% Triton X-100), Superose 6 10/30 column; single symmetric peak
[2] = target: the molecule itself; experiment: SEC; partially purified CHGB in a Superose 6 column, earlier SEC step during purification

B1: recombinant murine chromogranin B (CHGB) (natural protein, mouse, UniProt P16014 21-677, looked up)
chain: APVDNRDHNEEMVTRCIIEVLSNALSKSSVPTITPECRQVLKKSGKEVKGEEKGENQNSKFEVRLLRDPADASGTRWASSREDAGAPVEDSQGQTKVGNEKWTEGGGHSREGVDDQESLRPSNQQASKEAKIYHSEERVGKEREKEEGKIYPMGEHREDAGEEKKHIEDSGEKPNTFSNKRSEASAKKKDESVARADAHSMELEEKTHSREQSSQESGEETRRQEKPQELTDQDQSQEESQEGEEGEEGEEGEEGEEDSASEVTKRRPRHHHGRSGSNKSSYEGHPLSEERRPSPKESKEADVATVRLGEKRSHHLAHYRASEEEPEYGEESRSYRGLQYRGRGSEEDRAPRPRSEESQEREYKRNHPDSELESTANRHGEETEEERSYEGANGRQHRGRGREPGAHSALDTREEKRLLDEGHYPVRESPIDTAKRYPQSKWQEQEKNYLNYGEEGDQGRWWQQEEQLGPEESREEVRFPDRQYEPYPITEKRKRLGALFNPYFDPLQWKNSDFEKRGNPDDSFLEDEGEDRNGVTLTEKNSFPEYNYDWWERRPFSEDVNWGYEKRSFARAPQLDLKRQYDGVAELDQLLHYRKKADEFPDFYDSEEQMGPHQEANDEKARADQRVLTAEEKKELENLAAMDLELQKIAEKFSQRG
notes: chromogranin B (CHGB), mouse; cDNA of the mouse CHGB gene (mChgb) cloned from a pcDNA3.1 plasmid into pFastBac 1; The protein needs Triton X-100-like detergents to stay soluble; also called mCHGB; mouse CHGB; source: sf9 cells (baculovirus), purified (Q-sepharose, ammonium sulfate, Ni-IDA, Superose 6 SEC) in Triton X-100
stoichiometry N [1]: 2 | stoichiometry N [2]: 4
